This passage reports abundance fitness results from the Human Domainome abundance scans (Beltran et al. 2025).

To fix the notation:
B1: Tyrosine-protein kinase BTK, residues 215 to 273; numbered along this chain, Q06187 (parent)
chain: ELKKVVALYDYMPMNANDLQLRKGDEYFILEESNLPWWRARDKNGQEGYIPSNYVTEAE

± gives the uncertainty stated by the source.

Variants of B1 are the subject of the data set. As to the kind of experiment: abundance fitness (aPCA) (normalised: wild type 0, dead -1); higher = more abundant; growth selection in yeast, the domain comes from the species named. As to conditions: Homo sapiens.
On to Y49P, for which the abundance fitness is -0.374 ± 0.054.

For the variant Y49E, the abundance fitness was -0.088 ± 0.057.

Consider Y49K, for which the abundance fitness was -0.056 ± 0.063.

For Y49M, the abundance fitness was 0.023 ± 0.047.

Consider Y49F, for which the abundance fitness is -0.033 ± 0.057.

As to P51E, the abundance fitness was -0.373 ± 0.047.

As to P51C, the abundance fitness was -0.126 ± 0.059.

Take L8F: the abundance fitness was -0.222 ± 0.056.

For L8N, the abundance fitness was -0.118 ± 0.077.

With L8E, the abundance fitness is -0.094 ± 0.035.

On to L8A, for which the abundance fitness was -0.124 ± 0.031.

With L8D, the abundance fitness was -0.137 ± 0.055.

For the variant E31R, the abundance fitness is -0.028 ± 0.032.

For the variant E31M, the abundance fitness is 0.026 ± 0.048.

Regarding E31L, the abundance fitness is -0.122 ± 0.033.

As for E31C, the abundance fitness is -0.034 ± 0.048.

Regarding T56G, the abundance fitness came out at 0.08 ± 0.055.

T56F: the abundance fitness is -0.169 ± 0.068.

In the case of T56N, the abundance fitness is -0.094 ± 0.087.

Take T56R: the abundance fitness is 0.012 ± 0.037.

T56L: the abundance fitness is -0.086 ± 0.031.

With V5H, the abundance fitness is -0.335 ± 0.071.

For V5K, the abundance fitness was -0.288 ± 0.056.

In the case of V5C, the abundance fitness is -0.213 ± 0.043.

For the variant V5I, the abundance fitness was -0.189 ± 0.035.

On to V5N, for which the abundance fitness is -0.839 ± 0.069.

In the case of V5Q, the abundance fitness is -0.329 ± 0.059.

For V5S, the abundance fitness was -0.404 ± 0.04.

For K43S, the abundance fitness is -0.016 ± 0.043.

With K43G, the abundance fitness amounted to 0.004 ± 0.029.

Consider K43T, for which the abundance fitness is -0.016 ± 0.049.

For the variant K43V, the abundance fitness is -0.001 ± 0.037.

On to R22A, for which the abundance fitness is -0.032 ± 0.038.

On to R22E, for which the abundance fitness is -0.041 ± 0.054.

On to R22V, for which the abundance fitness is 0.031 ± 0.033.

For R22Y, the abundance fitness came out at 0 ± 0.07.

As to R22L, the abundance fitness is -0.002 ± 0.034.

As for R22C, the abundance fitness is -0.004 ± 0.049.

For the variant R22P, the abundance fitness was -0.768 ± 0.086.

With R22I, the abundance fitness was -0.026 ± 0.067.

On to R22W, for which the abundance fitness was -0.099 ± 0.037.

Turning to R22T, the abundance fitness was -0.037 ± 0.053.

Take G45W: the abundance fitness is -0.224 ± 0.036.

As for G45L, the abundance fitness is -0.08 ± 0.038.

With G45A, the abundance fitness was -0.073 ± 0.04.

For G45H, the abundance fitness is -0.118 ± 0.12.

As to G45Q, the abundance fitness is -0.144 ± 0.05.

Consider F28M, for which the abundance fitness came out at 0.017 ± 0.054.

F28N: the abundance fitness is -0.077 ± 0.069.

For the variant F28D, the abundance fitness was -0.018 ± 0.064.

As for F28W, the abundance fitness turned out to be 0.032 ± 0.049.

Take F28V: the abundance fitness is -0.009 ± 0.035.

D18Q: the abundance fitness came out at 0.018 ± 0.043.

D18N: the abundance fitness turned out to be 0.009 ± 0.057.

In the case of D18T, the abundance fitness was -0.034 ± 0.043.

In the case of D42I, the abundance fitness was -0.995 ± 0.14.

Regarding D42G, the abundance fitness was -0.103 ± 0.036.

For D42S, the abundance fitness was -0.07 ± 0.039.

In the case of D42F, the abundance fitness is -0.843 ± 0.076.

Consider D42H, for which the abundance fitness was -0.321 ± 0.075.

As for D42R, the abundance fitness is -0.673 ± 0.063.

Take D42E: the abundance fitness was -0.23 ± 0.044.

In the case of D42P, the abundance fitness is -0.936 ± 0.12.

As for D10N, the abundance fitness was -0.102 ± 0.049.

Regarding D10G, the abundance fitness was -0.168 ± 0.2.

S33Y: the abundance fitness was -0.065 ± 0.059.

S33E: the abundance fitness was -0.038 ± 0.062.

S33P: the abundance fitness came to 0.006 ± 0.061.

Regarding L2F, the abundance fitness worked out at 0.011 ± 0.043.

For the variant L2W, the abundance fitness was -0.088 ± 0.042.

Take L2T: the abundance fitness was -0.161 ± 0.074.

Regarding L2Q, the abundance fitness is -0.013 ± 0.089.

Consider L2P, for which the abundance fitness is -0.136 ± 0.059.

On to L2R, for which the abundance fitness was -0.075 ± 0.041.

For the variant L2I, the abundance fitness is -0.089 ± 0.071.

I50Q: the abundance fitness is -1.2 ± 0.18.

For the variant I50M, the abundance fitness was -0.291 ± 0.054.

With I50K, the abundance fitness is -1.02 ± 0.15.

On to I50Y, for which the abundance fitness was -0.757 ± 0.1.

On to Y27F, for which the abundance fitness is -0.157 ± 0.052.

As for Y27L, the abundance fitness was -0.053 ± 0.03.

With Y27P, the abundance fitness is -0.624 ± 0.07.

With Y27G, the abundance fitness is -0.745 ± 0.056.

Y27S: the abundance fitness is -0.69 ± 0.052.

For the variant Q20L, the abundance fitness was -0.055 ± 0.038.

For the variant Q20I, the abundance fitness was -0.084 ± 0.055.

Consider Q20M, for which the abundance fitness was -0.073 ± 0.058.

For Q20K, the abundance fitness was -0.075 ± 0.075.

Take V6F: the abundance fitness is -0.073 ± 0.031.

With V6S, the abundance fitness is -0.19 ± 0.026.

Take V6L: the abundance fitness is -0.052 ± 0.027.

V6R: the abundance fitness was -0.093 ± 0.026.

On to E59L, for which the abundance fitness is -0.097 ± 0.06.

For E59S, the abundance fitness came to 0.067 ± 0.053.

As for E59K, the abundance fitness is -0.008 ± 0.08.

Turning to E59G, the abundance fitness was 0.042 ± 0.056.

Regarding E59V, the abundance fitness is 0.023 ± 0.075.

For K23Q, the abundance fitness was -0.077 ± 0.046.

As to K23R, the abundance fitness is -0.056 ± 0.03.

Regarding K23D, the abundance fitness was -0.522 ± 0.17.

Consider K23L, for which the abundance fitness was -0.181 ± 0.033.

K23E: the abundance fitness was -0.058 ± 0.046.

For W37A, the abundance fitness was -0.03 ± 0.047.

W37T: the abundance fitness came to 0.036 ± 0.045.

Take A16K: the abundance fitness is -0.068 ± 0.044.

For the variant A16N, the abundance fitness was -0.045 ± 0.055.

In the case of A16W, the abundance fitness is -0.105 ± 0.037.

Regarding A16V, the abundance fitness was -0.046 ± 0.03.

On to A16C, for which the abundance fitness was -0.063 ± 0.054.

Take A16R: the abundance fitness was -0.055 ± 0.028.

Consider R41W, for which the abundance fitness is -0.19 ± 0.047.

As for R41Y, the abundance fitness is -0.234 ± 0.11.

Consider R41I, for which the abundance fitness was -0.158 ± 0.088.

R41Q: the abundance fitness is -0.006 ± 0.057.

For R41A, the abundance fitness is -0.111 ± 0.041.

As for R41F, the abundance fitness is -0.142 ± 0.064.

As to R41D, the abundance fitness is -1.08 ± 0.2.

In the case of A40C, the abundance fitness was -0.121 ± 0.041.

On to A40K, for which the abundance fitness is -1.07 ± 0.18.

A40T: the abundance fitness is -0.456 ± 0.057.

For A40F, the abundance fitness is -0.892 ± 0.1.

As for A40P, the abundance fitness is -1.16 ± 0.14.

For A40H, the abundance fitness was -0.674 ± 0.14.

Regarding A40G, the abundance fitness was -0.047 ± 0.035.

Regarding A40W, the abundance fitness is -1.02 ± 0.087.

Consider S52Y, for which the abundance fitness is -0.226 ± 0.067.

On to S52V, for which the abundance fitness is -0.023 ± 0.044.

For S52M, the abundance fitness is 0.019 ± 0.07.

For S52P, the abundance fitness was -0.005 ± 0.055.

In the case of S52T, the abundance fitness was -0.058 ± 0.051.

Consider S52K, for which the abundance fitness turned out to be 0.088 ± 0.071.

As to D25G, the abundance fitness was -0.073 ± 0.037.

Consider D25A, for which the abundance fitness was -0.046 ± 0.036.

Take D25S: the abundance fitness was -0.071 ± 0.035.

For D25P, the abundance fitness was -1.15 ± 0.15.

Turning to D25Y, the abundance fitness is -0.101 ± 0.059.

Regarding W38V, the abundance fitness turned out to be 0.022 ± 0.035.

Regarding W38A, the abundance fitness is -0.017 ± 0.061.

As for W38S, the abundance fitness was 0.042 ± 0.032.

Regarding W38N, the abundance fitness is -0.098 ± 0.056.

On to W38P, for which the abundance fitness is -0.038 ± 0.043.

In the case of W38K, the abundance fitness is -0.008 ± 0.043.

As to G48A, the abundance fitness was -0.825 ± 0.073.

Take G48I: the abundance fitness was -1.13 ± 0.18.

With G48L, the abundance fitness is -0.993 ± 0.052.

For G48M, the abundance fitness is -0.946 ± 0.078.

In the case of G48V, the abundance fitness is -0.92 ± 0.063.

With G48W, the abundance fitness is -1.02 ± 0.087.

Consider G48S, for which the abundance fitness was -0.862 ± 0.057.

For A7G, the abundance fitness was -0.364 ± 0.032.

Regarding A7I, the abundance fitness is -0.966 ± 0.15.

For A7P, the abundance fitness was -0.654 ± 0.053.

In the case of A7C, the abundance fitness was -0.203 ± 0.055.

Take A7Y: the abundance fitness was -1.06 ± 0.12.

Turning to V55S, the abundance fitness was -0.695 ± 0.05.

In the case of V55M, the abundance fitness is -0.284 ± 0.079.

Turning to V55T, the abundance fitness is -0.12 ± 0.06.

V55K: the abundance fitness is -0.833 ± 0.12.

In the case of V55E, the abundance fitness is -0.617 ± 0.07.

For N15Y, the abundance fitness is -0.23 ± 0.062.

N15V: the abundance fitness stood at 0.052 ± 0.026.

Consider N15T, for which the abundance fitness was 0.089 ± 0.042.

Take N15S: the abundance fitness came out at 0.059 ± 0.032.

As for N44M, the abundance fitness was -0.061 ± 0.095.

In the case of N44K, the abundance fitness came to 0.07 ± 0.082.

N44D: the abundance fitness is -0.01 ± 0.066.

Regarding N44W, the abundance fitness is -0.056 ± 0.065.
